Data as given in ChEMBL document CHEMBL1153925, “Synthesis, characterization and biological activity of ring-substituted 6-benzylamino-9-tetrahydropyran-2-yl and 9-tetrahydrofuran-2-ylpurine derivatives” (Bioorg Med Chem, 2009).

What was measured:
Details in all cases: Zea mays
[1] = substrate: O[C@@H]1[C@H](O)[C@H](O)CO[C@H]1n1cnc2c(NCc3ccccc3)ncnc21
[2] = substrate: Oc1cccc(CNc2ncnc3c2ncn3C2CCCCO2)c1
[3] = substrate: CC(C)=CCNc1ncnc2[nH]cnc12
[4] = substrate: COc1cccc(CN)c1
[5] = substrate: COc1cccc(CNc2ncnc3c2ncn3C2CCCCO2)c1
[6] = substrate: c1ccc(CNc2ncnc3c2ncn3C2CCCCO2)cc1
[7] = substrate: Oc1cccc(CNc2ncnc3nc[nH]c23)c1
[8] = substrate: COc1ccc(CN)cc1
[9] = substrate: COc1ccc(CNc2ncnc3c2ncn3C2CCCCO2)cc1
[10] = substrate: NCc1ccc(O)cc1
[11] = substrate: Oc1ccc(CNc2ncnc3c2ncn3C2CCCCO2)cc1
[12] = substrate: c1ccc(CNc2ncnc3[nH]cnc23)cc1
[13] = substrate: Oc1cccc(CNc2ncnc3c2ncn3C2CCCCO2)c1; remark: listed apart in the source
[14] = substrate: CC(C)=CCNc1ncnc2[nH]cnc12; remark: listed apart in the source
[15] = biological target: 6-(4-hydroxybenzylamino)purine
[16] = substrate: c1ccc(CNc2ncnc3c2ncn3C2CCCCO2)cc1; remark: listed apart in the source
[17] = substrate: Oc1cccc(CNc2ncnc3nc[nH]c23)c1; remark: listed apart in the source
[18] = substrate: Oc1ccc(CNc2ncnc3c2ncn3C2CCCCO2)cc1; remark: listed apart in the source
[19] = substrate: c1ccc(CNc2ncnc3[nH]cnc23)cc1; remark: listed apart in the source
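Throughout, for Km: zea mays CKX1 produced in Pichia pastoris, enzyme activity followed as aldehyde formation detected with the 4-aminophenol method.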

B1: Cytokinin dehydrogenase 1 (Zea mays), Q9T0N8 (protein)
chain: MAVVYYLLLAGLIACSHALAAGTPALGDDRGRPWPASLAALALDGKLRTDSNATAAASTDFGNITSALPAAVLYPSSTGDLVALLSAANSTPGWPYTIAFRGRGHSLMGQAFAPGGVVVNMASLGDAAAPPRINVSADGRYVDAGGEQVWIDVLRASLARGVAPRSWNDYLYLTVGGTLSNAGISGQAFRHGPQISNVLEMDVITGHGEMVTCSKQLNADLFDAVLGGLGQFGVITRARIAVEPAPARARWVRFVYTDFAAFSADQERLTAPRPGGGGASFGPMSYVEGSVFVNQSLATDLANTGFFTDADVARIVALAGERNATTVYSIEATLNYDNATAAAAAVDQELASVLGTLSYVEGFAFQRDVAYAAFLDRVHGEEVALNKLGLWRVPHPWLNMFVPRSRIADFDRGVFKGILQGTDIVGPLIVYPLNKSMWDDGMSAATPSEDVFYAVSLLFSSVAPNDLARLQEQNRRILRFCDLAGIQYKTYLARHTDRSDWVRHFGAAKWNRFVEMKNKYDPKRLLSPGQDIFN
kcat [1]: 0.218 s⁻¹ | Km [2]: 125 µM | kcat [2]: 0.032 s⁻¹ | Km [3]: 1.8 µM | kcat [3]: 0.208 s⁻¹ | kcat [4]: 0.145 s⁻¹ | kcat [5]: 0.006 s⁻¹ | Km [6]: 98.9 µM | kcat [6]: 0.069 s⁻¹ | Km [7]: 24.4 µM | kcat [7]: 0.244 s⁻¹ | kcat [8]: 0.476 s⁻¹ | kcat [9]: 0.256 s⁻¹ | Km [10]: 5.5 µM | kcat [10]: 0.871 s⁻¹ | Km [11]: 33.8 µM | kcat [11]: 0.195 s⁻¹ | Km [12]: 29.6 µM | kcat [12]: 0.225 s⁻¹ | kcat/Km [13]: 0.0003 | kcat/Km [14]: 0.116 | kcat/Km [15]: 0.158 | kcat/Km [16]: 0.0007 | kcat/Km [17]: 0.01 | kcat/Km [18]: 5800 M⁻¹ s⁻¹ | kcat/Km [19]: 0.0076
